The values that follow come from PMC2797330.

The assay addresses CD4 on uninfected CEM-4 cells (human (endogenous in CEM-T4)) (UniProt P01730). Briefly: flow cytometry on cells; uninfected CEM-4 cells incubated 2 h at 4°C with gp120MN (0.24 µg/ml), washed; bound gp120 detected with HIVIG (10 µg/ml) and anti-human secondary antibody; % of cells fluorescing. In general terms: A flow cytometer gives signals particle by particle.

With recombinant gp120MN (natural protein), the % of cells positive (gp120 bound to cells, detected with HIVIG) was determined as 96.2 % positive.
